Laboratory results reported in article PMC9731233.

What was measured:
[1] = biological target: antitoxin PrpA^FL (Pseudoalteromonas rubra); test: crystal structure; PrpTA complex, ~3.6 mg/ml in 0.1 M NaCl, 0.05 M Tris pH 8.0; sitting drop, 16°C; molecular replacement
[2] = biological target: antitoxin PrpA^FL (Pseudoalteromonas rubra); test: SEC-MALS; purified PrpTA complex, PrpA^FL and PrpA^2–54 samples (Figure 1A); buffer of these runs not told
[3] = biological target: truncated antitoxin PrpA^2–54 (Pseudoalteromonas rubra); test: SEC-MALS; PrpA^2–54 at increased protein concentration (within a limited range; concentrations not given)
[4] = biological target: truncated antitoxin PrpA^2–54 (Pseudoalteromonas rubra); test: SEC-MALS; PrpA^2–54 in phosphate buffer (PB), 100 mM NaH2PO4/Na2HPO4 pH 8.0
[5] = biological target: truncated antitoxin PrpA^2–54 (Pseudoalteromonas rubra); test: SEC-MALS; purified PrpTA complex, PrpA^FL and PrpA^2–54 samples (Figure 1A); buffer of these runs not told
[6] = biological target: truncated antitoxin PrpA^2–54 (Pseudoalteromonas rubra); test: crystal structure; PrpA^2–54 form I and form II, ~5.2 mg/ml in 0.1 M NaCl, 0.05 M Tris pH 8.0; sitting drop, 16°C; molecular replacement with VcParD2 (PDB 7B22)

| Substance | stoichiometry N [1] | stoichiometry N [2] | stoichiometry N [3] | stoichiometry N [4] | stoichiometry N [5] | stoichiometry N [6] |
| --- | --- | --- | --- | --- | --- | --- |
| antitoxin PrpA^FL (natural protein) | 2 | 4 |  |  |  |  |
| truncated antitoxin PrpA^2–54 (domain or fragment) |  |  | 6 | 4 | 2 | 16 |
